Reference: the Human Domainome abundance scans (Beltran et al. 2025)
± gives the uncertainty stated by the source.

B1: COUP transcription factor 1, residues 83 to 159; numbered along this chain, P10589 (parent)
chain: HIECVVCGDKSSGKHYGQFTCEGCKSFFKRSVRRNLTYTCRANRNCPIDQHHRNQCQYCRLKKCLKVGMRREAVQRG

Variants of: B1
Test: abundance fitness (aPCA) (normalised: wild type 0, dead -1); higher = more abundant; growth selection in yeast, the domain comes from the species named
Settings: Homo sapiens
In the case of K66L, the abundance fitness is reported as -0.032 ± 0.038. In the case of K66A, the abundance fitness is reported as 0.003 ± 0.037. In the case of K66Y, the abundance fitness is reported as -0.033 ± 0.058. With K66E the abundance fitness was 0.02 ± 0.044. In the case of C59Y, the abundance fitness is reported as -0.789 ± 0.19. C59Q gave an abundance fitness of -0.801 ± 0.12. C59D showed an abundance fitness of -0.729 ± 0.14. Variant C59F has an abundance fitness of -0.978 ± 0.42. For C59W, the abundance fitness was -1.02 ± 0.12. In the case of C59P, the abundance fitness is reported as -0.541 ± 0.094. Variant P47L has an abundance fitness of -0.141 ± 0.056. Variant P47I has an abundance fitness of -0.137 ± 0.12. Variant P47V has an abundance fitness of -0.003 ± 0.049. With P47D the abundance fitness was -0.271 ± 0.12. For P47N, the abundance fitness was -0.679 ± 0.22. Work on G68C yielded an abundance fitness of -0.597 ± 0.094. Variant G68R has an abundance fitness of -0.65 ± 0.049. Work on G68T yielded an abundance fitness of -0.677 ± 0.075. With G68F the abundance fitness was -0.609 ± 0.12. With G68K the abundance fitness was -0.747 ± 0.099. In the case of E72C, the abundance fitness is reported as -0.337 ± 0.064. Variant E72S has an abundance fitness of -0.252 ± 0.044. For E72W, the abundance fitness was -0.248 ± 0.05. Work on Y16G yielded an abundance fitness of -0.157 ± 0.061. For Y16I, the abundance fitness was -0.297 ± 0.21. With Y16P the abundance fitness was -0.355 ± 0.14. Work on Y16A yielded an abundance fitness of -0.441 ± 0.11. With Y16Q the abundance fitness was 0.096 ± 0.094. With C7I the abundance fitness was -0.912 ± 0.41. Work on C7D yielded an abundance fitness of -0.867 ± 0.21. C7F gave an abundance fitness of -0.942 ± 0.38. In the case of C7G, the abundance fitness is reported as -0.733 ± 0.069. In the case of C7N, the abundance fitness is reported as -0.562 ± 0.18. C7M gave an abundance fitness of -0.84 ± 0.24. For R30V, the abundance fitness was 0.08 ± 0.12. With R30G the abundance fitness was -0.079 ± 0.066. With R30E the abundance fitness was 0.054 ± 0.13. For M69N, the abundance fitness was -0.864 ± 0.19. With M69T the abundance fitness was -0.719 ± 0.095. M69S showed an abundance fitness of -0.783 ± 0.079. V32C showed an abundance fitness of -0.798 ± 0.2. For V32P, the abundance fitness was -0.393 ± 0.13. V32N showed an abundance fitness of -0.196 ± 0.25. With T39I the abundance fitness was -0.019 ± 0.27. Variant T39D has an abundance fitness of 0.12 ± 0.21. T39Q showed an abundance fitness of 0.04 ± 0.085. With T39K the abundance fitness was -0.083 ± 0.14. Work on T39R yielded an abundance fitness of -0.108 ± 0.068. T39V gave an abundance fitness of 0.013 ± 0.067. C24Q gave an abundance fitness of -1.04 ± 0.23. In the case of C24A, the abundance fitness is reported as -0.841 ± 0.11. C24R showed an abundance fitness of -0.795 ± 0.071. C24S showed an abundance fitness of -0.901 ± 0.13. With Q55V the abundance fitness was -0.003 ± 0.04. Q55D showed an abundance fitness of 0.123 ± 0.051. Q55C gave an abundance fitness of 0.008 ± 0.056. Work on Q55L yielded an abundance fitness of -0.059 ± 0.045. With Q55T the abundance fitness was -0.101 ± 0.051. Work on K14V yielded an abundance fitness of 0.115 ± 0.12. K14G showed an abundance fitness of -0.315 ± 0.14. Variant K14R has an abundance fitness of -0.217 ± 0.12. Work on K14W yielded an abundance fitness of -0.423 ± 0.25. Work on K14M yielded an abundance fitness of 0.016 ± 0.13. N43Y showed an abundance fitness of -0.374 ± 0.23. N43H showed an abundance fitness of -0.319 ± 0.19. In the case of N43I, the abundance fitness is reported as -0.335 ± 0.24. With N43V the abundance fitness was 0.128 ± 0.071. With N43S the abundance fitness was 0.011 ± 0.064. With N43W the abundance fitness was 0.015 ± 0.072. For N43E, the abundance fitness was 0.227 ± 0.065. In the case of K63E, the abundance fitness is reported as -0.161 ± 0.044. K63V gave an abundance fitness of -0.249 ± 0.045. In the case of K63I, the abundance fitness is reported as -0.402 ± 0.1. Work on K63N yielded an abundance fitness of -0.626 ± 0.14. Work on K63F yielded an abundance fitness of -0.372 ± 0.12. K63R showed an abundance fitness of -0.094 ± 0.036. K63D showed an abundance fitness of -0.874 ± 0.14. With K63P the abundance fitness was -0.647 ± 0.095. K63Q showed an abundance fitness of -0.139 ± 0.047. With I48L the abundance fitness was -0.147 ± 0.046. In the case of I48F, the abundance fitness is reported as -0.11 ± 0.087. Variant I48Y has an abundance fitness of -0.518 ± 0.12. With I48D the abundance fitness was -0.302 ± 0.11. In the case of I48G, the abundance fitness is reported as -0.466 ± 0.071. For I48Q, the abundance fitness was -0.125 ± 0.065. For Q75K, the abundance fitness was -0.071 ± 0.052. With Q75E the abundance fitness was 0.104 ± 0.04. With Q75H the abundance fitness was 0.222 ± 0.071. C40K showed an abundance fitness of -0.384 ± 0.1. In the case of C40P, the abundance fitness is reported as -0.941 ± 0.17. For C40S, the abundance fitness was -1.08 ± 0.17. C40I showed an abundance fitness of -0.496 ± 0.32. With H51R the abundance fitness was -0.16 ± 0.039. With H51L the abundance fitness was 0.059 ± 0.044. H51N gave an abundance fitness of 0.102 ± 0.13. Work on H51K yielded an abundance fitness of 0.059 ± 0.064. V6F showed an abundance fitness of -0.581 ± 0.28. Work on V6M yielded an abundance fitness of -1.06 ± 0.36. In the case of V6Q, the abundance fitness is reported as -0.802 ± 0.29. With V6Y the abundance fitness was -0.439 ± 0.31. Work on Q50E yielded an abundance fitness of 0.05 ± 0.044. With Q50W the abundance fitness was -0.06 ± 0.05. For Y38A, the abundance fitness was -0.378 ± 0.11. Y38E gave an abundance fitness of -0.226 ± 0.11. For Y38K, the abundance fitness was -0.831 ± 0.23. Work on Y38P yielded an abundance fitness of 0.094 ± 0.085. In the case of Y38Q, the abundance fitness is reported as -0.464 ± 0.21. Y38N showed an abundance fitness of -0.772 ± 0.27. For Y38V, the abundance fitness was -0.257 ± 0.081. With Y38M the abundance fitness was -0.059 ± 0.1. For Y58L, the abundance fitness was -0.378 ± 0.044. Y58F gave an abundance fitness of 0.072 ± 0.088. Y58Q gave an abundance fitness of -0.231 ± 0.052. With Y58D the abundance fitness was -0.046 ± 0.059. In the case of C46M, the abundance fitness is reported as -0.654 ± 0.15. With C46W the abundance fitness was -0.779 ± 0.11. C46K gave an abundance fitness of -0.624 ± 0.2. For C46V, the abundance fitness was -0.433 ± 0.063. In the case of E3A, the abundance fitness is reported as -0.01 ± 0.044. E3P gave an abundance fitness of -0.279 ± 0.086. With E3S the abundance fitness was -0.052 ± 0.064. In the case of T20H, the abundance fitness is reported as -0.541 ± 0.16. Work on T20E yielded an abundance fitness of -0.116 ± 0.051. T20Q showed an abundance fitness of -0.382 ± 0.12. In the case of T20I, the abundance fitness is reported as 0.232 ± 0.086. In the case of A73I, the abundance fitness is reported as -0.239 ± 0.092. In the case of A73M, the abundance fitness is reported as -0.065 ± 0.045. With A73P the abundance fitness was -0.11 ± 0.05. For A73D, the abundance fitness was 0.112 ± 0.054. With A73Y the abundance fitness was -0.061 ± 0.068. Variant A73G has an abundance fitness of -0.025 ± 0.031. Work on A73L yielded an abundance fitness of -0.04 ± 0.036. For D9W, the abundance fitness was -0.14 ± 0.076. D9C showed an abundance fitness of -0.625 ± 0.46. Variant D9M has an abundance fitness of 0.065 ± 0.081. For D9Y, the abundance fitness was -0.381 ± 0.2. T37S showed an abundance fitness of -0.009 ± 0.047. T37M gave an abundance fitness of -0.215 ± 0.082. T37Q gave an abundance fitness of -0.104 ± 0.078. Work on T37A yielded an abundance fitness of 0.085 ± 0.051. T37G gave an abundance fitness of 0.06 ± 0.054. In the case of C21P, the abundance fitness is reported as -0.923 ± 0.18. C21D gave an abundance fitness of -1.03 ± 0.26. For C21I, the abundance fitness was -0.999 ± 0.37. In the case of C21Q, the abundance fitness is reported as -0.371 ± 0.12. C21E gave an abundance fitness of -0.929 ± 0.15. C21N gave an abundance fitness of -0.61 ± 0.19. C21V gave an abundance fitness of -1.09 ± 0.13. In the case of R71Q, the abundance fitness is reported as 0.049 ± 0.047. With R71M the abundance fitness was 0.151 ± 0.045. For R71V, the abundance fitness was -0.019 ± 0.037. For R71L, the abundance fitness was -0.039 ± 0.038. For R71I, the abundance fitness was 0.084 ± 0.057. R71A gave an abundance fitness of 0.007 ± 0.035. In the case of G13M, the abundance fitness is reported as -0.049 ± 0.068. Variant G13S has an abundance fitness of -0.193 ± 0.049. G13F showed an abundance fitness of -0.206 ± 0.075. Work on G13H yielded an abundance fitness of -0.306 ± 0.082. G13I showed an abundance fitness of -0.199 ± 0.099. Work on G13Q yielded an abundance fitness of 0.074 ± 0.059. In the case of S31R, the abundance fitness is reported as -0.955 ± 0.12. Variant S31K has an abundance fitness of -0.688 ± 0.41. For R33Q, the abundance fitness was 0.272 ± 0.071. With R33L the abundance fitness was 0.109 ± 0.05. With R33K the abundance fitness was -0.022 ± 0.079. For R33M, the abundance fitness was -0.045 ± 0.08. In the case of R33D, the abundance fitness is reported as 0.013 ± 0.072.
